Results on three substances are retold here after US20240132578A1.

A value given as a limit tells only on which side of the number the result lay.

Common to all, as to assay: cell-based or functional assay
The target of test [1] is HIV-1 Env of isolate 92UG024 (pseudovirus) (HIV-1).
Test [2] has as its target HIV-1 Env of isolate MGRM-A-004 (pseudovirus) (HIV-1).
The target in test [3] is HIV-1 Env of isolate MGRM-A-006 (pseudovirus) (HIV-1).
In test [4] the target is HIV-1 Env of isolate MGRM-AG-005 (subtype AG) (HIV-1).
Test [5] concerns the target HIV-1 Env of isolate MGRM-AG-011 (subtype AG) (HIV-1).
Test [6] addresses HIV-1 Env of isolate MGRM-D-011 (pseudovirus) (HIV-1).
Test [7] deals with HIV-1 Env of isolate MGRM-D-013 (pseudovirus) (HIV-1).
Test [8] addresses HIV-1 Env of isolate MGRM-D-021 (pseudovirus) (HIV-1).
Test [9] addresses HIV-1 Env of isolate MGRM-D-029 (HIV-1).
In test [10] the target is HIV-1 Env of isolate MGRM-F1-006 (HIV-1).
The target in test [11] is HIV-1 Env of pseudovirus isolate MGRM-C-014 (clade C) (HIV-1).
The target in test [12] is HIV-1 JR-CSF Env I307A (HIV-1 (isolate JR-CSF, clade B)) (UniProt P20871).
The target of test [13] is HIV-1 JR-CSF Env R419A (HIV-1 (isolate JR-CSF)) (UniProt P20871).
Another test has as its target HIV-1 CMU02 Env (HIV-1).
The target in the next test is aMLV envelope.

In the case of 5136_H01 (PGT-131) (antibody), the IC50 (µg/mL), pseudovirus neutralization in test [1] is > 50 µg/mL; in test [2] it was > 50 µg/mL; in test [3] it was > 50 µg/mL; in test [6], 0.756 µg/mL; in test [7], 4.14 µg/mL; in [8], 0.106 µg/mL. Moreover, the IC50 (µg/mL), pseudovirus neutralization in [9] and in test [10] was > 50 µg/mL in each case. For the same substance, the results for the IC50, pseudovirus neutralization in test [4], in [5] and in test [11] were 1.04 µg/mL, > 50 µg/mL and > 50 µg/mL, respectively. Moreover, the Fold IC50 increase relative to wild-type in test [12] is > 170 fold. The substance also returned a Fold IC50 increase relative to wild-type (pseudovirus neutralization) in test [13] of 1.7 fold.
Turning to 5114_A19 (PGT-128) (antibody), the IC50 (µg/mL), pseudovirus neutralization is > 50 µg/mL in test [1]; > 50 µg/mL in [2]; > 50 µg/mL in [3]; 0.007 µg/mL in test [6]; 8.85 µg/mL in test [7]; 0.014 µg/mL in test [8]. Besides, the results for the IC50 (µg/mL), pseudovirus neutralization in test [9] and in test [10] were > 50 µg/mL and 0.763 µg/mL, respectively. The values for the IC50, pseudovirus neutralization in test [4], in [5] and in test [11] were 0.037 µg/mL, 3.93 µg/mL and > 50 µg/mL, respectively. Also, the Fold IC50 increase relative to wild-type in test [12] was 3.7 fold. The substance also came in with a Fold IC50 increase relative to wild-type (pseudovirus neutralization) in [13] of 0.5 fold.
Take 5147_N06 (PGT-130) (antibody): the IC50, pseudovirus neutralization with HIV-1 CMU02 Env (HIV-1) was > 10 µg/mL; in [4], 0.54 µg/mL; in test [5], > 50 µg/mL; in [11] it was > 50 µg/mL; with aMLV envelope it was > 10 µg/mL. For the same substance, the IC50 (µg/mL), pseudovirus neutralization was > 50 µg/mL in test [1]; > 50 µg/mL in test [2]; > 50 µg/mL in [3]; 0.019 µg/mL in [6]; 0.429 µg/mL in test [7]; 0.156 µg/mL in [8]. Besides, the IC50 (µg/mL), pseudovirus neutralization in [9] and in test [10] was > 50 µg/mL each time. The substance further registered a Fold IC50 increase relative to wild-type in test [12] of 1000 fold. Besides, the Fold IC50 increase relative to wild-type (pseudovirus neutralization) in test [13] amounted to 2.6 fold.
